Positions count from the first letter of the chain named. Numbers in names are those of the source. Where two headings read alike, the source gives them in different places. Each block holds one binder with its values, some of them ahead of it.
Tests used:
human mature TGFβ1 [1] = molecular target: T1, human mature TGFβ1 (Homo sapiens, UniProt P01137); experiment: SPR; Biacore T200; antibody captured on a Protein A sensor chip (about 90 RU); mature TGFβ isoform injected, five-fold dilutions 0.008 nM to 5 nM; HBS-EP pH 7.4, 150 mM NaCl; 37 °C; 100 μl/min; 3 min association, 60 min dissociation; one-to-one Langmuir model, global fit; conditions: both partners purified
T1 construct: Transforming Growth Factor-beta 1, human, mature form (cut from the precursor); also called TGFb1; source: bought: PeproTech
T1 sequence (P01137 279-390): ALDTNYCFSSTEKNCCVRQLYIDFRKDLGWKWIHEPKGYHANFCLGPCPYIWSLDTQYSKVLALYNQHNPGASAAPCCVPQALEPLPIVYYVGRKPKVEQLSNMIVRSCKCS

human mature TGFβ3 [2] = molecular target: T2, human mature TGFβ3 (Homo sapiens, UniProt P10600); experiment: as above; conditions: both partners purified
T2 construct: Transforming Growth Factor-beta 3, human, mature form (cut from the precursor); also called TGFb3; source: bought: PeproTech
T2 sequence (P10600 301-412): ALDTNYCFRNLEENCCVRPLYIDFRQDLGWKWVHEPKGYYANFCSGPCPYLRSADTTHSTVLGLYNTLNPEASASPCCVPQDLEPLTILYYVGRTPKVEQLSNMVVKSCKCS

[3] = molecular target: T3, human mature TGFβ2 (PeproTech) (Homo sapiens, UniProt P61812); experiment: as above; conditions: both partners purified
T3 construct: Transforming Growth Factor-beta 2, human, mature form (cut from the precursor); also called TGFb2; source: bought: PeproTech
T3 sequence (P61812 303-414): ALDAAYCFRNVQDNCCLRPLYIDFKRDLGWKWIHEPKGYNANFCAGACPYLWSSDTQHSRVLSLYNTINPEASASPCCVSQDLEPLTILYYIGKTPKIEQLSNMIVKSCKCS

human mature TGFβ1 [4] = molecular target: T1, human mature TGFβ1; experiment: cell-based or functional assay
human mature TGFβ3 [5] = molecular target: T2, human mature TGFβ3; experiment: cell-based or functional assay
[6] = molecular target: T3, human mature TGFβ2 (PeproTech); experiment: cell-based or functional assay
human mature TGFβ3 [7] = molecular target: T2, human mature TGFβ3; experiment: cell-based or functional assay; remark: listed apart in the source
[8] = molecular target: T3, human mature TGFβ2 (PeproTech); experiment: cell-based or functional assay; remark: listed apart in the source
human mature TGFβ1 [9] = molecular target: T1, human mature TGFβ1; experiment: SPR; Biacore T200; antibody captured on a Protein A sensor chip (about 90 RU); mature TGFβ isoform injected, five-fold dilutions 0.008 nM to 5 nM; HBS-EP pH 7.4, 150 mM NaCl; 37 °C; 100 μl/min; 3 min association, 60 min dissociation; one-to-one Langmuir model, global fit; conditions: both partners purified; remark: listed apart in the source
human mature TGFβ3 [10] = molecular target: T2, human mature TGFβ3; experiment: as above; conditions: both partners purified; remark: listed apart in the source
[11] = molecular target: T3, human mature TGFβ2 (PeproTech); experiment: as above; conditions: both partners purified; remark: listed apart in the source

B2: h4A11.v2.1 (antibody, V domains shown)
VH: EQQLVESGGGLVQPGGSLSLSCAVSGFSLSSYTVNWVRQAPGKGLEWIGYISYGGSAYYASWANGRFTISKDSAKNSVYLQMNSLRAEDTAVYFCARHMQVGGAPTGSMAAFDPWGPGTLVTVSS
VL: DAQLTQSPSSLSASVGDRVTITCQSSQSVYNNNYLSWFQQKPGKPPKLLIYGASTLTSGVPSRFSGSGSGTDFTLTISSLQPEDFATYYCAGGYSGSSDKYAFGGGTKVEIK
notes: as the VH of m7 (h4A11.v2) with the stated change; numbers count on: Kabat numbering of the heavy chain; as the VL of m7 (h4A11.v2); human IgG1; also called v2.1_R19S; source: Expi293F, transient, purified (Protein A, SEC)
- TGFβ inhibition by HEK-Blue cells (IC50: nM), TGFb3; Blocking: Complete (human mature TGFβ3 [7]): 0.1 nM
- TGFβ inhibition by HEK-Blue cells (IC50: nM), TGFb2; Blocking: Complete [8]: 0.7 nM
- Kd (human mature TGFβ1 [9]): > 5 nM
- binding result (human mature TGFβ1 [9]): no binding (tested: 5 nM)
- Kd (human mature TGFβ3 [10]): 0.0006 nM
- Kd [11]: 0.0022 nM

B3: h4A11.v2.5 (antibody, V domains shown)
VH: B2 VH with Q81S
VL: B2 VL
notes: as the VH of m7 (h4A11.v2) with the stated changes; numbers count on: Kabat numbering of the heavy chain; as the VL of m7 (h4A11.v2); human IgG1; also called v2.5_ R19S, Q81S; source: Expi293F, transient, purified (Protein A, SEC)
- TGFβ inhibition by HEK-Blue cells (IC50: nM), TGFb3; Blocking: Complete (human mature TGFβ3 [7]): 0.1 nM
- TGFβ inhibition by HEK-Blue cells (IC50: nM), TGFb2; Blocking: Complete [8]: 0.7 nM
- Kd (human mature TGFβ1 [9]): > 5 nM
- binding result (human mature TGFβ1 [9]): no binding (tested: 5 nM)
- Kd (human mature TGFβ3 [10]): 0.0006 nM
- Kd [11]: 0.0017 nM

B4: h4A11.v2.3 (antibody, V domains shown)
VH: B2 VH with S19R, Q81A
VL: B2 VL
notes: as the VH of m7 (h4A11.v2) with the stated change; numbers count on: Kabat numbering of the heavy chain; as the VL of m7 (h4A11.v2); human IgG1; also called v2.3_Q81A; source: Expi293F, transient, purified (Protein A, SEC)
- TGFβ inhibition by HEK-Blue cells (IC50: nM), TGFb3; Blocking: Complete (human mature TGFβ3 [7]): 0.7 nM
- TGFβ inhibition by HEK-Blue cells (IC50: nM), TGFb2; Blocking: Complete [8]: 1.7 nM
- Kd (human mature TGFβ1 [9]): > 5 nM
- binding result (human mature TGFβ1 [9]): no binding (tested: 5 nM)
- Kd (human mature TGFβ3 [10]): 0.0055 nM
- Kd [11]: 0.0034 nM

B6: h4A11.v2.4 (antibody, V domains shown)
VH: B2 VH with Y79S
VL: B2 VL
notes: as the VH of m7 (h4A11.v2) with the stated changes; numbers count on: Kabat numbering of the heavy chain; as the VL of m7 (h4A11.v2); human IgG1; also called v2.4_ R19S, Y79S; source: Expi293F, transient, purified (Protein A, SEC)
- TGFβ inhibition by HEK-Blue cells (IC50: nM), TGFb3; Blocking: Complete (human mature TGFβ3 [7]): 0.2 nM
- TGFβ inhibition by HEK-Blue cells (IC50: nM), TGFb2; Blocking: Complete [8]: 2.2 nM
- Kd (human mature TGFβ1 [9]): > 5 nM
- binding result (human mature TGFβ1 [9]): no binding (tested: 5 nM)
- Kd (human mature TGFβ3 [10]): 0.0006 nM
- Kd [11]: 0.0014 nM

B7: h4A11.v2.2 (antibody, V domains shown)
VH: B2 VH with S19R, Q81N
VL: B2 VL
notes: as the VH of m7 (h4A11.v2) with the stated change; numbers count on: Kabat numbering of the heavy chain; as the VL of m7 (h4A11.v2); human IgG1; also called v2.2_Q81N; source: Expi293F, transient, purified (Protein A, SEC)
- TGFβ inhibition by HEK-Blue cells (IC50: nM), TGFb3; Blocking: Complete (human mature TGFβ3 [7]): 0.4 nM
- TGFβ inhibition by HEK-Blue cells (IC50: nM), TGFb2; Blocking: Complete [8]: 2.2 nM
- Kd (human mature TGFβ1 [9]): > 5 nM
- binding result (human mature TGFβ1 [9]): no binding (tested: 5 nM)
- Kd (human mature TGFβ3 [10]): 0.006 nM
- Kd [11]: 0.0045 nM

Next, values leading:

- Kd (human mature TGFβ1 [1]): > 5 nM
- binding result (human mature TGFβ1 [1]): no binding (tested: 5 nM)
- Kd (human mature TGFβ3 [2]): 0.0012 nM
- Kd [3]: 0.0016 nM
- TGFβ inhibition by HEK-Blue cells (IC50: nM), TGFb1 (human mature TGFβ1 [4]): > 667 nM
- TGFβ inhibition by HEK-Blue cells (IC50: nM), TGFb3; Blocking: Complete (human mature TGFβ3 [5]): 0.1 nM
- TGFβ inhibition by HEK-Blue cells (IC50: nM), TGFb2; Blocking: Complete [6]: 0.9 nM
B1: rabbit monoclonal antibody 4A11 (antibody, V domains shown)
VH: QSLEESGGRLVTPGTPLTLTCTVSGFSLSSYTVNWVRQAPGKGLEWIGYISYGGSAYYASWANGRFTISKTSATVDLKITSPTTEDTATYFCARHMQVGGAPTGSMAAFDPWGPGTLVTVSS
VL: AAVLTQTPSPVSAAVGGTVSISCQSSQSVYNNNYLSWFQQKPGQPPKLLIYGASTLTSGVPSRFKGSGSGTQFTLTISDVQCDDAATYYCAGGYSGSSDKYAFGGGTEVVVK
notes: VH of rbt4A11; VL of rbt4A11; Parental rabbit antibody; also called rbt4A11

- TGFβ inhibition by HEK-Blue cells (IC50: nM), TGFb3; Blocking: Complete (human mature TGFβ3 [7]): 0.3 nM
- TGFβ inhibition by HEK-Blue cells (IC50: nM), TGFb2; Blocking: Complete [8]: 1.7 nM
- Kd (human mature TGFβ1 [9]): > 5 nM
- binding result (human mature TGFβ1 [9]): no binding (tested: 5 nM)
- Kd (human mature TGFβ3 [10]): 0.0005 nM
- Kd [11]: 0.0019 nM
B5: h4A11.v2.6 (antibody, V domains shown)
VH: B2 VH with Y79S, Q81S
VL: B2 VL
notes: as the VH of m7 (h4A11.v2) with the stated changes; numbers count on: Kabat numbering of the heavy chain; as the VL of m7 (h4A11.v2); human IgG1; also called v2.6_ R19S, Y79S, Q81S; source: Expi293F, transient, purified (Protein A, SEC)
